Experimental data as given in the RNAGym collection of RNA variant scans (doi:10.1073/pnas.2313332121).

B1: TPR t1 (parent)
chain: GACCAAUCUGCCCUCAGAGCUCGAGAACAUCUUCGGAUGCAGAGGAGGCAGGCUUCGGUGGCGCGAUAGCGCCAACGUCCUCAACCUCCAAUGCAUCCCACCACAUGAUGAUGCCUGAAGAGCCUUGGUUUUUUG

Variants of: B1
Test: polymerase ribozyme fitness, log enrichment relative to wild type (log ratio); higher = more active; in vitro selection for triplet polymerase activity
In short: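 PCR was used to build mutant libraries for each subunit of a heterodimeric triplet polymerase ribozyme, which were then transcribed. A single in vitro selection round, in triplicate, used a frozen incubation at −7 °C and recovered extended constructs by gel excision, streptavidin beads and RT-PCR. Fitness is the logarithm of genotype enrichment relative to wild-type enrichment, averaged over replicates with inverse-variance weights. The logarithm is base 2, and after Illumina sequencing only genotypes with ≥10 input reads and ≥1 read per output were kept.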
With C34A U55C G60A U129G the “polymerase ribozyme fitness (log ratio)” value was -4.44.
In the case of C34A G58A, the “polymerase ribozyme fitness (log ratio)” value is reported as -2.81.
In the case of C34A C70A, the “polymerase ribozyme fitness (log ratio)” value is reported as -4.06.
For U33G G39C G110U, the “polymerase ribozyme fitness (log ratio)” value was -6.35.
With C34U G93A the “polymerase ribozyme fitness (log ratio)” value was -3.87.
In the case of C34U C56A C114U, the “polymerase ribozyme fitness (log ratio)” value is reported as -4.57.
With C34A C97G the “polymerase ribozyme fitness (log ratio)” value was -4.18.
For C34A A121U, the “polymerase ribozyme fitness (log ratio)” value was -0.134.
In the case of C34G G44U C62U G77A G110C, the “polymerase ribozyme fitness (log ratio)” value is reported as -6.64.
In the case of C34A C72G G107U U109G A121G, the “polymerase ribozyme fitness (log ratio)” value is reported as -5.86.
In the case of G35A C49A G60U C86U C89A, the “polymerase ribozyme fitness (log ratio)” value is reported as -7.46.
For G35C G45U G61A A121G, the “polymerase ribozyme fitness (log ratio)” value was -3.1.
For C34U A74U, the “polymerase ribozyme fitness (log ratio)” value was -4.36.
With C34G G63C the “polymerase ribozyme fitness (log ratio)” value was -6.66.
In the case of C34A C82A, the “polymerase ribozyme fitness (log ratio)” value is reported as -2.72.
For C34U C72A C123A, the “polymerase ribozyme fitness (log ratio)” value was -5.4.
With C34A A50G G113U G120C the “polymerase ribozyme fitness (log ratio)” value was -6.31.
For C34A C79U, the “polymerase ribozyme fitness (log ratio)” value was -2.71.
In the case of C34A C79G, the “polymerase ribozyme fitness (log ratio)” value is reported as -6.59.
For C34A G42A G61A G117C U131C, the “polymerase ribozyme fitness (log ratio)” value was -7.25.
For C34U G57A G107A U109A U116G, the “polymerase ribozyme fitness (log ratio)” value was -6.43.
In the case of G35A G122U C123G, the “polymerase ribozyme fitness (log ratio)” value is reported as -4.
For C34A C40U C85A, the “polymerase ribozyme fitness (log ratio)” value was -5.11.
For C34G A46U, the “polymerase ribozyme fitness (log ratio)” value was -6.06.
For C34U A41G C56U G63C C89A A95U C104G G110A, the “polymerase ribozyme fitness (log ratio)” value was -5.19.
In the case of C34A A46G U54G, the “polymerase ribozyme fitness (log ratio)” value is reported as -2.69.
For C34A C72A C102U, the “polymerase ribozyme fitness (log ratio)” value was -2.07.
With U33G U54G G58C A74G G120C the “polymerase ribozyme fitness (log ratio)” value was -5.75.
In the case of C34U A84U U131G, the “polymerase ribozyme fitness (log ratio)” value is reported as -5.95.
In the case of C34U C72G, the “polymerase ribozyme fitness (log ratio)” value is reported as -2.99.
With G35A A108U G120C the “polymerase ribozyme fitness (log ratio)” value was -5.76.
With G35A C64U A103C G120A the “polymerase ribozyme fitness (log ratio)” value was -5.9.
With C34A G113A the “polymerase ribozyme fitness (log ratio)” value was -4.03.
For C34A G113C, the “polymerase ribozyme fitness (log ratio)” value was -5.75.
In the case of C34A G60C U112G U130A U133A, the “polymerase ribozyme fitness (log ratio)” value is reported as -4.54.
For C34G A43U G60C C82A A100U C114U U130C U132A U134C, the “polymerase ribozyme fitness (log ratio)” value was -5.7.
For C34A C64U, the “polymerase ribozyme fitness (log ratio)” value was -2.37.
With C34G U112A the “polymerase ribozyme fitness (log ratio)” value was -4.47.
In the case of U33G G61A A121U G127U U133A, the “polymerase ribozyme fitness (log ratio)” value is reported as -3.67.
With C34U C49G C53G A75G C88A C104A U112A the “polymerase ribozyme fitness (log ratio)” value was -5.7.
In the case of C34A A84G A121G, the “polymerase ribozyme fitness (log ratio)” value is reported as -2.74.
For G35C A43G G60A C62U C64G A84U C98U A111U A121U, the “polymerase ribozyme fitness (log ratio)” value was -7.98.
With G35A C94G C123G U129C the “polymerase ribozyme fitness (log ratio)” value was -5.78.
In the case of G35C A50G C53G U67G C124A G135U, the “polymerase ribozyme fitness (log ratio)” value is reported as -6.69.
For C34A G61U U112G C123A, the “polymerase ribozyme fitness (log ratio)” value was -4.54.
In the case of G35A C99A C123A, the “polymerase ribozyme fitness (log ratio)” value is reported as -6.8.
In the case of C34G C73U, the “polymerase ribozyme fitness (log ratio)” value is reported as -5.17.
With C34G G36A U96A C124U the “polymerase ribozyme fitness (log ratio)” value was -6.45.
For C34U C70G, the “polymerase ribozyme fitness (log ratio)” value was -5.34.
With C34A G61A the “polymerase ribozyme fitness (log ratio)” value was -2.98.
With C34A G77U C98A the “polymerase ribozyme fitness (log ratio)” value was -2.63.
In the case of C34A C40U A41U C101A C114A G120A, the “polymerase ribozyme fitness (log ratio)” value is reported as -6.72.
For G35C C114U, the “polymerase ribozyme fitness (log ratio)” value was -5.79.
In the case of G35C G36A G51C C123G, the “polymerase ribozyme fitness (log ratio)” value is reported as -6.59.
For C34U A50C C70G C79G C89A C102G C124U, the “polymerase ribozyme fitness (log ratio)” value was -6.39.
In the case of C34A A95U, the “polymerase ribozyme fitness (log ratio)” value is reported as -3.54.
For C34U C53G A66U C124A, the “polymerase ribozyme fitness (log ratio)” value was -6.48.
For C34U G113A C115A U132A, the “polymerase ribozyme fitness (log ratio)” value was -6.07.
In the case of C34U G48U, the “polymerase ribozyme fitness (log ratio)” value is reported as -4.63.
In the case of C34A A37U G69C G120A, the “polymerase ribozyme fitness (log ratio)” value is reported as -5.05.
With U33G G48U G60A C97G G120A the “polymerase ribozyme fitness (log ratio)” value was -7.27.
For C34A A50U C53U A121C, the “polymerase ribozyme fitness (log ratio)” value was -4.91.
In the case of G35C C72U, the “polymerase ribozyme fitness (log ratio)” value is reported as -4.96.
In the case of C34G A83C, the “polymerase ribozyme fitness (log ratio)” value is reported as -4.9.
For C34U C70G C72U, the “polymerase ribozyme fitness (log ratio)” value was -7.09.
In the case of C34A C73A, the “polymerase ribozyme fitness (log ratio)” value is reported as -2.46.
In the case of U33G C70U U78G, the “polymerase ribozyme fitness (log ratio)” value is reported as -6.53.
With U33G G93A A100U C114U the “polymerase ribozyme fitness (log ratio)” value was -7.04.
For G35C C73A, the “polymerase ribozyme fitness (log ratio)” value was -5.42.
In the case of C34A U87A A90G, the “polymerase ribozyme fitness (log ratio)” value is reported as -2.87.
In the case of G35A G48C C56A C123G, the “polymerase ribozyme fitness (log ratio)” value is reported as -2.99.
For G35A G36U U112A, the “polymerase ribozyme fitness (log ratio)” value was -5.59.
With G35A G120C the “polymerase ribozyme fitness (log ratio)” value was -2.79.
With C34A C72U G110U the “polymerase ribozyme fitness (log ratio)” value was -6.56.
With C34A G45U the “polymerase ribozyme fitness (log ratio)” value was -4.49.
With C34U U78A the “polymerase ribozyme fitness (log ratio)” value was -4.78.
In the case of C34U U78C, the “polymerase ribozyme fitness (log ratio)” value is reported as -4.25.
With C34A G71A U78C C94U U125A the “polymerase ribozyme fitness (log ratio)” value was -5.82.
With C34U C56A G71C U112A the “polymerase ribozyme fitness (log ratio)” value was -6.49.
With C34A U55A C88A the “polymerase ribozyme fitness (log ratio)” value was -3.93.
For C34U G77A, the “polymerase ribozyme fitness (log ratio)” value was -5.22.
For G35A A66C G117U, the “polymerase ribozyme fitness (log ratio)” value was -5.98.
With C34U G63C A100U A111C the “polymerase ribozyme fitness (log ratio)” value was -5.4.
